Laboratory results from patent US20140148396A1.

Target: EMMPRIN in mouse aortic endothelial cells (MAEC) (mouse) (UniProt P18572)
Assay: cell-based or functional assay

## anti-EMMPRIN antibody (rat-anti-mouse-EMMPRIN, OX114 clone)
  reduction of MMP-9 in mice compared to the IgG control: > 50%
